± gives the standard deviation of the averaged measurements.
What follows are sequences tested on ATP (assay: switch fluorescence ratio, 500 uM ATP over buffer (Cy3 cluster intensity, sum of 5 cycles each) (fold (ratio)); higher = stronger signal-on switching upon ATP binding; sequences stand for … in TCGTCGGCAGCGTCAGATGTGTATAAGAGACAGTTTTTTTTTTTTTTTTTTTTTTTTT…TC). Conditions: aptamer strand: ATP DNA aptamer (quencher-CACCTGGGGGAGTATTGCGGAGGAAGG + anchor), 100 nM annealed; ATP concentration: 500 uM.
Outline: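 Clusters carrying Cy3-labelled switching strands on a modified Illumina MiSeq flow-cell were annealed to 100 nM quencher-labelled ATP aptamer and imaged in selection buffer. They were imaged again after 15 min with 500 uM ATP at 22 °C, over five buffer/ATP cycles with NaOH stripping and re-annealing in between. For each cluster, the fluorescence ratio is the summed Cy3 intensity of the target cycles divided by that of the buffer cycles, averaged per switch-domain sequence. Clusters outside 100-1000 RFU were left out.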
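Also: ATP exposure 15 min at 22 °C before imaging.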

Sequence	switch fluorescence ratio
GAATCAAGCG	0.986 ± 0.059
AGTAAAAAAG	1.042 ± 0.0073
CTAAAAAATT	1.01 ± 0.022
TAACGGCCTC	1.04 ± 0.023
TGTTTGGGTA	1 ± 0.07
CCGGGGAGGA	1.06 ± 0.026
GTGACCTGGG	1.03 ± 0.026
TCAGTGGGGG	0.97 ± 0.019
ATTTGCTGTG	0.9916 ± 0.0062
TGAAAGGGTA	0.999 ± 0.022
CGGGGCAAAA	1.04 ± 0.027
GGGAATTACC	0.986 ± 0.024
TTAAGGGGG	1.03 ± 0.012
TACACGCGGG	1.01 ± 0.048
GTTATTCCAA	1.03 ± 0.028
TTTGGGGCTG	1.04 ± 0.11
ACTGGGGTGT	1.07 ± 0.0045
AGAGGGCTTT	0.988 ± 0.032
ATTCAATCGA	1.018 ± 0.0031
TTACTGTAAT	1.18 ± 0.037
ACTACAGACG	1.11 ± 0.061
TTTCTCGTCT	0.988 ± 0.011
AAAGGATACG	1.01 ± 0.034
AGGAGAGGGA	0.995 ± 0.038
TGCTTCTCCA	1.03 ± 0.036

Sequence	switch fluorescence ratio
TTTTACAAGG	0.983 ± 0.031
ATGATGAGTT	0.986 ± 0.01
GGTTGAAATG	0.939 ± 0.072
TTCACGGACC	1.455 ± 0.013
TGGTTAACAG	0.999 ± 0.022
TAGGCTATAT	1.01 ± 0.042
AAGGCGGGG	0.991 ± 0.011
GGTGGACTTG	1 ± 0.041
TTCTACTTTT	1.01 ± 0.053
TAGGTAGATG	1.02 ± 0.018
GAGGGGCGTG	1 ± 0.022
GCCCTTGTAC	1.2 ± 0.094
GCATATTGGG	0.9866 ± 0.0042
TCGAGCACTG	1.13 ± 0.065
TGTTTTATAA	0.995 ± 0.024
TAAGGGTGA	1.03 ± 0.015
TAAAAAGAAA	0.983 ± 0.043
AATTATCGGC	0.998 ± 0.049
AACTCGGGGG	0.999 ± 0.027
GCGGTAGAGC	1.017 ± 0.0099
GGGTGAAACA	0.987 ± 0.069
TTTTTTGCCT	1.01 ± 0.038
AATGGCGGGA	1.021 ± 0.0015
GACCGATGTG	1.01 ± 0.013
TTACTTACTT	1.28 ± 0.081

Sequence	switch fluorescence ratio
AATGATAAGC	1.04 ± 0.028
CGGGTATTTT	0.9878 ± 0.0043
TCTTGGGACG	0.979 ± 0.042
ATACATGTAG	0.9845 ± 0.0047
GGGGGAGTGA	0.972 ± 0.029
TTATTGGCAA	1.29 ± 0.34
GCCAGCCGAC	1.2 ± 0.032
CAGGTAAAGG	1.01 ± 0.022
GTTGGCATGG	1.025 ± 0.0044
CAAGCCATCA	0.9994 ± 0.0092
TTAGTATGCT	0.9864 ± 0.0082
GTTGGTCGTG	1 ± 0.038
TTTTAGGATT	1.016 ± 0.0018
CAAAAGTCGG	1.02 ± 0.012
AAGGGTTTAG	1 ± 0.067
AGGGCTGCTA	0.996 ± 0.046
ATAAAAGGGG	1.001 ± 0.0097
TAGCCCTTTT	0.973 ± 0.01
GTGGGTAAAG	0.975 ± 0.01
TTAGGCTGTG	0.986 ± 0.03
TGAGGAAGGG	1.04 ± 0.099
GGGCCATCGT	0.993 ± 0.026
GGTCGCCGGG	0.976 ± 0.081
GTATTGCTTT	0.963 ± 0.012
GGGAGGTAGG	0.991 ± 0.01

Sequence	switch fluorescence ratio
TCAGGCGTGA	0.987 ± 0.035
CAGGAGGGGA	1.01 ± 0.011
ATGTGGGCGG	0.991 ± 0.028
CGGAAATTTG	1.02 ± 0.032
TACTAGAGCG	1.03 ± 0.04
AAAGGCTCGG	0.978 ± 0.022
AGTACGAGGA	1.04 ± 0.035
TGGTGAGGGC	0.9816 ± 0.0077
AGGTGAGATT	1.02 ± 0.018
GGGGTCGGTT	1.01 ± 0.051
ACATTCTGGA	0.988 ± 0.031
AGTCGGGAGG	0.945 ± 0.062
TTTTTTGGCC	0.993 ± 0.036
TTCGAGGGGG	1.01 ± 0.031
CGACTGGGGG	0.957 ± 0.026
GGGTGCCGTG	1.03 ± 0.047
TCGGGGGGAA	1.06 ± 0.057
CATGCGTCGA	1.044 ± 0.0035
AATGGTGTGG	0.995 ± 0.014
GGGTACTTTT	1 ± 0.0091
CAGGATAAAT	0.979 ± 0.06
GGGGCAATGT	1.22 ± 0.05
GAATGTTTGA	0.984 ± 0.044
AAACACCGGG	1.11 ± 0.031
GAGGAGGGAG	0.998 ± 0.014

From the supplement of paper PMC10126150
